{
  "source": "paper PMC5070911",
  "about": "(Clinical Immunology (Orlando, Fla.), 2016)",
  "biological_target": "T1, recombinant form of the extracellular domain of HER2 (amino acids 23-652) (UniProt P04626 23-652)",
  "T1 construct": "HER2 (neu/ErbB2), extracellular domain, amino acids 23-652; Bought recombinant protein; also called rHER2; neu; source: bought: e-bioscience, UK",
  "assay": "SPR; competitive binding: fixed rHER2 concentration incubated 1 h with 5-, 50- and 500-fold excess of Herceptin, flowed over immobilised EPO",
  "conditions": "both partners purified",
  "data": [
    {"binder": "Eosinophil Peroxidase (EPO) (enzyme, Eosinophil peroxidase, human, light chain of the mature enzyme; Eosinophil peroxidase, human, heavy chain of the mature enzyme; Native granule protein; source: purified from eosinophils of patients with marked eosinophilia (0.01 M HCl extraction, Sephadex G-50)) chain 1: not shown chain 2: VDCERTCAQLPPCFPIKIPPNDPRIKNQRDCIPFFRSAPSCPQNKNRVRNQINALTSFVDASMVYGSEVSLSLRLRNRTNYLGLLAINQRFQDNGRALLPFDNLHDDPCLLTNRSARIPCFLAGDTRSTETPKLAAMHTLFMREHNRLATELRRLNPRWNGDKLYNEARKIMGAMVQIITYRDFLPLVLGKARARRTLGHYRGYCSNVDPRVANVFTLAFRFGHTMLQPFMFRLDSQYRASAPNSHVPLSSAFFASWRIVYEGGIDPILRGLMATPAKLNRQDAMLVDELRDRLFRQVRRIGLDLAALNMQRSRDHGLPGYNAWRRFCGLSQPRNLAQLSRVLKNQDLARKFLNLYGTPDNIDIWIGAIAEPLLPGARVGPLLACLFENQFRRARDGDRFWWQKRGVFTKRQRKALSRISLSRIICDNTGITTVSRDIFRANIYPRGFVNCSRIPRLNLSAWRGT", "values": [
      {"measurement": "binding result", "result": "binds"}
    ]}
  ]
}
